Experimental data: patent US20260232769A1 (WUXI BIOLOGICS IRELAND, published 2026)

T1: IL-2Rα (CD25) on human activated CD8+ T cells (human, UniProt P01589 22-272)
T1 sequence (looked up): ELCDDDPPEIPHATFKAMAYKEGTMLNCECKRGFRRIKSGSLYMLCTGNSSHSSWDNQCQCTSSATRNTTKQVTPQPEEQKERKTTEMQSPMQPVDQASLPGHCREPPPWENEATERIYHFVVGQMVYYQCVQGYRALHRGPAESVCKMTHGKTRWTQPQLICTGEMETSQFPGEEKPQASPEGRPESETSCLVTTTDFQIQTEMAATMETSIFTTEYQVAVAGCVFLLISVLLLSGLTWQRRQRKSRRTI

T2: IL-2Rβ/γc complex (intermediate affinity receptor) on primary human CD8+ T cells (human, UniProt P14784 27-551; P31785 23-369)
T2 sequence (looked up) 1: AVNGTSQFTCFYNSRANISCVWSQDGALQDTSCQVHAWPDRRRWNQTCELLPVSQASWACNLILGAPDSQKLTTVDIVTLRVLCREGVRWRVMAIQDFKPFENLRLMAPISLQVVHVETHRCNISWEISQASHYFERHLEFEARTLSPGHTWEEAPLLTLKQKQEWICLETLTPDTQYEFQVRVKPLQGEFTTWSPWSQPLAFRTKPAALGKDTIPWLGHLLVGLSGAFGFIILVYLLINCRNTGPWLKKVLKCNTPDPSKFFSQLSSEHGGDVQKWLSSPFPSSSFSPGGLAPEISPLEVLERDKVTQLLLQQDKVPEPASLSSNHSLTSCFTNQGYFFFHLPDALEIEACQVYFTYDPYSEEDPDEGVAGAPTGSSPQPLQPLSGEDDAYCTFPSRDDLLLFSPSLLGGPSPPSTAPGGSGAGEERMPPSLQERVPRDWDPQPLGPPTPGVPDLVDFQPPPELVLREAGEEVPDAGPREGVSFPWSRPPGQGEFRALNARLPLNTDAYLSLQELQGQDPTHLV
T2 sequence (looked up) 2: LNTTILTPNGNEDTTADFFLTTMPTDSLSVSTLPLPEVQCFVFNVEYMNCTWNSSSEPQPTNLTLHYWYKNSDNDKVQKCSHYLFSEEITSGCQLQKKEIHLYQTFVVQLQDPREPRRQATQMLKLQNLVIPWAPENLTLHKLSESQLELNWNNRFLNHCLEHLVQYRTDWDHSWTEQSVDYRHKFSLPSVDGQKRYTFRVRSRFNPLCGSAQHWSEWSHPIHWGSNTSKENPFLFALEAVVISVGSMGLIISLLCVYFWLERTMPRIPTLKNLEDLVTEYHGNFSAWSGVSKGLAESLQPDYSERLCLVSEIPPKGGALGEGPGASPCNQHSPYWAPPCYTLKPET

T3: IL-2Rα/β/γc complex (high affinity receptor) on human activated CD8+ T cells (human, UniProt P01589 22-272; P14784 27-551; P31785 23-369)
T3 sequence (looked up) 1: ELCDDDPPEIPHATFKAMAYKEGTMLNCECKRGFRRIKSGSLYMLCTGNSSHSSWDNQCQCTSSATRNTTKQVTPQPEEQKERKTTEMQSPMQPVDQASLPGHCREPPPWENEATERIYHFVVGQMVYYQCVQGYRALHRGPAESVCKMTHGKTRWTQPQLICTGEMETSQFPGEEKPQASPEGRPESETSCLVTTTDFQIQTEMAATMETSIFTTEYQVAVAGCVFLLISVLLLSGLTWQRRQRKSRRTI
T3 sequence (looked up) 2: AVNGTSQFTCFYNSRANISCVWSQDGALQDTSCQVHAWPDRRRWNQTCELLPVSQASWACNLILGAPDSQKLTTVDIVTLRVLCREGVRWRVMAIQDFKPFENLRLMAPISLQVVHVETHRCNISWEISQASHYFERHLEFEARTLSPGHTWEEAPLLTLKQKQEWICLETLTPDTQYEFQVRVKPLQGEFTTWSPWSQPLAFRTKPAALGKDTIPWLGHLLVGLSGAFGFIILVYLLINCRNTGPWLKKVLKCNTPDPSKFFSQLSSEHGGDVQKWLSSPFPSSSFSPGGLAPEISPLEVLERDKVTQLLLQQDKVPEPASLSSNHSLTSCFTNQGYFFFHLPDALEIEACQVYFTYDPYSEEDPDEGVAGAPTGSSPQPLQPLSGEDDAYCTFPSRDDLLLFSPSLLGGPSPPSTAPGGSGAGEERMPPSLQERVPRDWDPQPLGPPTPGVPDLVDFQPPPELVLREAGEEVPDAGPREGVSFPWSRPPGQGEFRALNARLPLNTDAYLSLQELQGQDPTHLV
T3 sequence (looked up) 3: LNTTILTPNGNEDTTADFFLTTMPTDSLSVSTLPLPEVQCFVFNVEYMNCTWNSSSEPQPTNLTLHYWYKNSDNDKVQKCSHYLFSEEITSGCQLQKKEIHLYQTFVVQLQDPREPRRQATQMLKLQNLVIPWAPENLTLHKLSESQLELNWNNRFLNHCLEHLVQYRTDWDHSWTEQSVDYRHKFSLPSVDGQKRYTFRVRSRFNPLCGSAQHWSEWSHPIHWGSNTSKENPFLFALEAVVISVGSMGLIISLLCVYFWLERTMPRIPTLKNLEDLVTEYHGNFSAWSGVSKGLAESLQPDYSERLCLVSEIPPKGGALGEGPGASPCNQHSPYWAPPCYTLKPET


Legend:
Experiment in all cases: cell-based or functional assay
[1] = molecular target: T1, IL-2Rα (CD25) on human activated CD8+ T …
[2] = molecular target: T2, IL-2Rβ/γc complex (intermediate …)
[3] = molecular target: PD-1 (on CHO-PD1 engineered cell line; on activated CD8+ T cells) (UniProt Q15116 25-288, limits assumed)
[4] = molecular target: T3, IL-2Rα/β/γc complex (high affinity …)
[5] = molecular target: T3, IL-2Rα/β/γc complex (high affinity …); remark: listed apart in the source

| PD-1+/PD-1- ratio (pSTAT5 potency, activated versus primary CD8+ T) [1] | Potency reduction, pSTAT5, human primary CD8+ T [2] | pSTAT5 EC50, human primary CD8+ T [2] | PD-1+/PD-1- ratio (pSTAT5 potency, activated versus primary CD8+ T) [3] | Potency reduction, pSTAT5, human activated CD8+ T (CD25 positive and PD-1 positive) [4] | pSTAT5 EC50, human activated CD8+ T (CD25 positive and PD-1 positive) [4] | Potency reduction, pSTAT5, human activated CD8+ T [5] | Binder |
| --- | --- | --- | --- | --- | --- | --- | --- |
| 4200 fold | 25.9 fold | 370 nM | 4200 fold | 3.2 fold | 0.088 nM |  | W3XX115-T2U3.E44-26.uIgG4V322 (Fc fusion) APTSSSTKKTQLQLEHLLLDLQMILNGINNYKNPKLTRMLTFKFYMPKKATELKHLQCLEEELKPLEEVLNLAQSKNFHLRPRDLISNINVIVLELKGSETTFMCEYADETATIVEFLNRWITFCQSILESKYGPPCPPCPAPEAAGGPSVFLFPPKPKDTLMISRTPEVTCVVVDVSQEDPEVQFNWYVDGVEVHNAKTKPREEQFNSTYRVVSVLTVLHQDWLNGKEYKCKVSNKGLPSSIEKTISKAKGQPREPQVYTLPPCQEEMTKNQVSLWCLVKGFYPSDIAVEWESNGQPENNYKTTPPVLDSDGSFFLYSRLTVDKSRWQEGNVFSCSVMHEALHNHYTQKSLSLSLGK heavy: QVQLVQSGAEVKKPGSSVKVSCKASGFTFTTYYISWVRQAPGQGLEYLGYINMGSGGTNYNEKFKGRVTITADKSTSTAYMELSSLRSEDTAVYYCAIIGYFDYWGQGTMVTVSSASTKGPSVFPLAPCSRSTSESTAALGCLVKDYFPEPVTVSWNSGALTSGVHTFPAVLQSSGLYSLSSVVTVPSSSLGTKTYTCNVDHKPSNTKVDKRVESKYGPPCPPCPAPEAAGGPSVFLFPPKPKDTLMISRTPEVTCVVVDVSQEDPEVQFNWYVDGVEVHNAKTKPREEQFNSTYRVVSVLTVLHQDWLNGKEYKCKVSNKGLPSSIEKTISKAKGQPREPQVCTLPPSQEEMTKNQVSLSCAVKGFYPSDIAVEWESNGQPENNYKTTPPVLDSDGSFFLVSRLTVDKSRWQEGNVFSCSVMHEALHNHYTQKSLSLSLGK light: DVVMTQSPLSLPVTLGQPASISCRSSQSLLDSDGGTYLYWFQQRPGQSPRRLIYLVSTLGSGVPDRFSGSGSGTDFTLKISRVEAEDVGVYYCMQLTHWPYTFGQGTKLEIKRTVAAPSVFIFPPSDEQLKSGTASVVCLLNNFYPREAKVQWKVDNALQSGNSQESVTEQDSKDSTYSLSSTLTLSKADYEKHKVYACEVTHQGLSSPVTKSFNRGEC |
|  |  |  |  |  |  | 12.4 fold | W3XX115-T3U0.E44-1.uIgG4V322 (Fc fusion) APTSSSTKKTQLQLEHLLLDLQMILNGINNYKNPKLTRMLTVKFAMPKKATELKHLQCLEEELKPLEEVLNGAQSKNFHLRPRDLISNINVIVLELKGSETTFMCEYADETATIVEFLNRWITFCQSIISTLTESKYGPPCPPCPAPEAAGGPSVFLFPPKPKDTLMISRTPEVTCVVVDVSQEDPEVQFNWYVDGVEVHNAKTKPREEQFNSTYRVVSVLTVLHQDWLNGKEYKCKVSNKGLPSSIEKTISKAKGQPREPQVYTLPPCQEEMTKNQVSLWCLVKGFYPSDIAVEWESNGQPENNYKTTPPVLDSDGSFFLYSRLTVDKSRWQEGNVFSCSVMHEALHNHYTQKSLSLSLG heavy: EIQLQQSGPELVKPGASVKVSCKASGYSFTDYNMYWVKQSHGESLEWIGYIDPYNGGTRYNQKFKGKATLTVDKSSSTAFMHLNSLTSEDSAVYYCARNGHWDGAWFAYWGQGTLVTVSAASTKGPSVFPLAPCSRSTSESTAALGCLVKDYFPEPVTVSWNSGALTSGVHTFPAVLQSSGLYSLSSVVTVPSSSLGTKTYTCNVDHKPSNTKVDKRVESKYGPPCPPCPAPEAAGGPSVFLFPPKPKDTLMISRTPEVTCVVVDVSQEDPEVQFNWYVDGVEVHNAKTKPREEQFNSTYRVVSVLTVLHQDWLNGKEYKCKVSNKGLPSSIEKTISKAKGQPREPQVCTLPPSQEEMTKNQVSLSCAVKGFYPSDIAVEWESNGQPENNYKTTPPVLDSDGSFFLVSRLTVDKSRWQEGNVFSCSVMHEALHNHYTQKSLSLSLG light: DIQMNQSPSSLSASLGDTITITCHASQNINVWLSWYQQKPGNIPKLLIYKASNLHTGVPSRFSGSRSGTGFTLTISSLQPEDIATYYCHQGQSYPFTFGSGTKLEIKRTVAAPSVFIFPPSDEQLKSGTASVVCLLNNFYPREAKVQWKVDNALQSGNSQESVTEQDSKDSTYSLSSTLTLSKADYEKHKVYACEVTHQGLSSPVTKSFNRGEC |
